Tested on: MS2 coat protein
Experiment: apparent KD of MS2 coat protein; designed switch direction (-1 OFF switch, 1 ON switch): -1; higher = weaker reporter binding
Outline: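 Three titration conditions were used: no input, 200 uM small-molecule ligand, and an oligonucleotide input. In each, SNAP-549-labelled MS2 coat protein was raised from 0.7 or 1.5 nM, doubling, to 3 µM over designed RNA switches transcribed on Illumina chips by stalled E. coli RNA polymerase. Curve fits of normalised cluster fluorescence gave values whose per-design median over clusters is the apparent KD.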

[1] = Eterna round: R95, input ligand: FMN 200 uM
[2] = Eterna round: R95, input ligand: microRNA oligo, concentration not stated
[3] = Eterna round: R95, input ligand: none
[4] = input ligand: microRNA oligo, concentration not stated

UCCUGACAUGAGGAUCACCCAUGUGAGGAUAUGUGGUUCGGGUCAACUCCCGUUCCGUGCAGAAGGCACAGGGC [EX1 A.29] (Eterna round: R97, puzzle: Exclusion 1)
apparent KD of MS2 coat protein (input ligand: FMN 200 uM): 26.4 nM | apparent KD of MS2 coat protein (input ligand: none): 16.2 nM

UCCUUGUUGGAGGAUAUGCAUAGCAUCACGCCUGUAGAAGGCCAAACAUGAGGAUCACCCAUGUGCAUGGGAUG [Eternabot (L1) Solution 77] (Eterna round: R97, puzzle: Exclusion 6)
apparent KD of MS2 coat protein (input ligand: FMN 200 uM): 244 nM | apparent KD of MS2 coat protein (input ligand: none): 216 nM

UCGAGGUCAGGAUAUACAUGAGGAUCACCCAUGUGGAUGUAAGGUAGGAGAAGAGUAGGUAGAAGGGACGAGAG [JR_Exclu3_Sub049] (puzzle: Exclusion 3)
apparent KD of MS2 coat protein [1]: 46.7 nM | apparent KD of MS2 coat protein [2]: 37.8 nM | apparent KD of MS2 coat protein [3]: 55.4 nM

UCGAUGUGAGGAUAUAACAGGACGAACUCUUAAUAGUACGGUUAGAAGGCACAUGAGGAUCACCCAUGUGACGA [EX4 B.27] (Eterna round: R97, puzzle: Exclusion 4)
apparent KD of MS2 coat protein (input ligand: FMN 200 uM): 40.1 nM | apparent KD of MS2 coat protein (input ligand: none): 17.7 nM

UCGCUGCGAGGAUAUACAUGAGGAUCACCCAUGUGCGGGUCCGGGUCUUCGUCCAUUAGUAGAAGGCGCAGUGA [JL Laongeedie mod 4] (Eterna round: R96, puzzle: Exclusion 3)
apparent KD of MS2 coat protein (input ligand: FMN 200 uM): 705 nM | apparent KD of MS2 coat protein [4]: 112 nM | apparent KD of MS2 coat protein (input ligand: none): 119 nM

UCGCUGCGAGGAUAUACAUGAGGAUCACCCAUGUGCGGGUCCGGGUCUUCGUCCAUUAGUAGAAGGCGCAGUGA [JL Laongeedie mod 4] (puzzle: Exclusion 3)
apparent KD of MS2 coat protein [2]: 99.9 nM

UCGCUGCGAGGAUAUACAUGAGGAUCACCCAUGUGCGGGUCCGGGUCUUCGUCCAUUGGUAGAAGGCGCAGUGA [JL Laongeedie mod 6] (puzzle: Exclusion 3)
apparent KD of MS2 coat protein [2]: 43 nM

UCGGCGUCAGGAUAUCCAAUAUAUGACAUGAGGAUCACCCAUGUUUCCACUCGUACCUCCGGAGAAGGGACGAAUA [Ex5 #91] (Eterna round: R97, puzzle: Exclusion 5)
apparent KD of MS2 coat protein (input ligand: FMN 200 uM): 30.9 nM | apparent KD of MS2 coat protein (input ligand: none): 35.7 nM

UCGGGCUCAGAGGAUAUGGGCGAAAAUAUAAAACCAGAAGGCUGAACUUGAGGAUCACCCAAGUACGGGCAAAA [Inxeridi] (Eterna round: R97, puzzle: Exclusion 6)
apparent KD of MS2 coat protein (input ligand: FMN 200 uM): 143 nM | apparent KD of MS2 coat protein (input ligand: none): 67.9 nM

UCGUUCCGUGUAGGAUAUUGGCCUUCUCUGGGCCGAGAAGGACAUGAGGAUCACCCAUGUAUGUUAUUAUCGCGCGUGGCGCAU [Design 85] (Eterna round: R96, puzzle: Exclusion NG 1)
apparent KD of MS2 coat protein [4]: 24.7 nM

UCUAGACAUGAGGAUCACCCAUGUGAGGAUAUGAUGCGAUCGUCGAAAGACGAUAGCAUCAGAAGGCACAUAUG [Fiskers Ex 1 - 4] (puzzle: Exclusion 1)
apparent KD of MS2 coat protein [2]: 117 nM

UCUAGCUUUUUGCGUCAAGCAUUGAAGUCUGUGAUCGUUACAUGAGGAUCACCCAUGUAUGUUUUAUGUCGUCUUGU [JR_SV3TOV2_Sub099] (puzzle: Sensor v3, turn-off variant 2)
apparent KD of MS2 coat protein [1]: 37.2 nM | apparent KD of MS2 coat protein [2]: 33.1 nM | apparent KD of MS2 coat protein [3]: 43.9 nM

UCUAUUUUGCGAGGAUAUCGACCAUUCCUCUUUACAUGAGGAUCACCCAUGUUCUUUUUCUACAACGAGAAGGCGCUCAUAGUU [JR_ExcNG2_Sub062] (Eterna round: R96, puzzle: Exclusion NG 2)
apparent KD of MS2 coat protein (input ligand: FMN 200 uM): 73.5 nM | apparent KD of MS2 coat protein [4]: 67.7 nM | apparent KD of MS2 coat protein (input ligand: none): 61.6 nM

UCUCAGCCUAAGGAUAUGAGCCGAACCAAAAGUUCAGAAGGUAGGACAUGAGGAUCACCCAUGUGAGCCUACAC [Eternabot (Original) Solution 39] (Eterna round: R97, puzzle: Exclusion 6)
apparent KD of MS2 coat protein (input ligand: FMN 200 uM): 34.3 nM | apparent KD of MS2 coat protein (input ligand: none): 21.3 nM

UCUCGAAGGCAAGGAUAUCCUACAUUGUUCUGGCCCGGGCAUGCUACAUGAGGAUCACCCAUGUGGGAGAAGGUGCGCCACUGC [Design 28] (Eterna round: R96, puzzle: Exclusion NG 2)
apparent KD of MS2 coat protein (input ligand: FMN 200 uM): 69.6 nM | apparent KD of MS2 coat protein [4]: 47.1 nM | apparent KD of MS2 coat protein (input ligand: none): 72 nM

UCUCGACAUGAGGAUCACCCAUGUCAGGAUAUUGUAUUAGAGGUUUUUUACCUUAUAACAAGAAGGGAUGUGUG [LRO-Excl1-23] (puzzle: Exclusion 1)
apparent KD of MS2 coat protein [2]: 23.6 nM

UCUCGCUGGCGAGGAUAUCCUGUGCGGUUCCGGCUCGUGUCUGUUACAUGAGGAUCACCCAUGUGGGAGAAGGUGCCUGUGGCU [Design 94] (Eterna round: R96, puzzle: Exclusion NG 2)
apparent KD of MS2 coat protein [4]: 22 nM

UCUCUGCGAGGAUAUACGUUUGCGCGCUUUCGUUUGCGCGUACAUGAGGAUCACCCAUGUAGAAGGCGCGUUUC [Apr-15 SS2-9] (puzzle: Exclusion 2)
apparent KD of MS2 coat protein [2]: 12.6 nM

UCUCUGUGAGGAUAUUGAACGACGCCGCUAACGGGCUUGCACAAGAAGGCACAUGAGGAUCACCCAUGUCCCGA [EX4 B.28] (Eterna round: R97, puzzle: Exclusion 4)
apparent KD of MS2 coat protein (input ligand: FMN 200 uM): 29.1 nM | apparent KD of MS2 coat protein (input ligand: none): 20.7 nM

UCUGCCGCUGUGAGGAUAUGCCCAAAUAAAAGCGGGCAGAAGGCACAUGAGGAUCACCCAUGUCCUGCGGUUUU [salish99_bmx4_r4_143] (Eterna round: R97, puzzle: Brourd's mod of Exclusion 4)
apparent KD of MS2 coat protein (input ligand: FMN 200 uM): 180 nM | apparent KD of MS2 coat protein (input ligand: none): 28.8 nM

UCUUUAGGUGUUAGGAUAUACCUGCGCAAAGUUAGGUAGAAGGGACAUGAGGAUCACCCAUGUGCGUCCACAAU [Eternabot (L1) Solution 29] (Eterna round: R97, puzzle: Brourd's mod of Exclusion 4)
apparent KD of MS2 coat protein (input ligand: FMN 200 uM): 30.4 nM | apparent KD of MS2 coat protein (input ligand: none): 27.5 nM

UGAGCAUGAGGAUAUACAAGGCGACCGUGAGGUCGAGGUUUACAUGAGGAUCACCCAUGUAGAAGGCAUGUUCU [jl-ex2-4.07] (Eterna round: R97, puzzle: Exclusion 2)
apparent KD of MS2 coat protein (input ligand: FMN 200 uM): 40.2 nM | apparent KD of MS2 coat protein (input ligand: none): 20 nM

UGAGCUUGAGGAUAUACAAUGAGCUUGAGAAAUCGAGUUCGACAUGAGGAUCACCCAUGUAGAAGGCGAGUUCG [-37.5, -35.6 kcal, A 28% 1 and 1] (Eterna round: R97, puzzle: Exclusion 2)
apparent KD of MS2 coat protein (input ligand: FMN 200 uM): 28.1 nM | apparent KD of MS2 coat protein (input ligand: none): 17.7 nM

UGAUCACAUGAGGAUCACCCAUGUCAGGAUAUCGUCACUGGAGCUGCGGCUCCAGUGACGAGAAGGGAUAUAAU [E1/5-A3] (Eterna round: R97, puzzle: Exclusion 1)
apparent KD of MS2 coat protein (input ligand: FMN 200 uM): 293 nM | apparent KD of MS2 coat protein (input ligand: none): 104 nM

UGAUCACAUGAGGAUCACCCAUGUCAGGAUAUCUACAUUGAAGCCUCGGCUUCAAUGUAGAGAAGGGAUAUAAU [E1/5-B2] (Eterna round: R97, puzzle: Exclusion 1)
apparent KD of MS2 coat protein (input ligand: FMN 200 uM): 189 nM | apparent KD of MS2 coat protein (input ligand: none): 86.8 nM

UGAUCUAGCGGAGGAUAUACAUGAGGAUCACCCAUGUAUAGGCUAUGACCGUAGUCGUGGAACAUGUAGAAGGCCGCUAGAUCU [JL ENG2 3.79] (Eterna round: R96, puzzle: Exclusion NG 2)
apparent KD of MS2 coat protein (input ligand: FMN 200 uM): 569 nM | apparent KD of MS2 coat protein [4]: 40.3 nM | apparent KD of MS2 coat protein (input ligand: none): 45.9 nM

UGAUGACAUGAGGAUCACCCAUGUCAGGAUAUUGAUCGUGAUCGGAAAUGAUCGUGAUCGAGAAGGGACUGUCG [-24.4, -21.4 kcal, A 28%, 2] (Eterna round: R97, puzzle: Exclusion 1)
apparent KD of MS2 coat protein (input ligand: FMN 200 uM): 31.8 nM | apparent KD of MS2 coat protein (input ligand: none): 27.6 nM

UGAUUGUUUACCAGGUUAUACAUGAGGAUCACCCAUGUAGAUCCUACGUGCGCGUUAUACCGCUCGUCUUAUUCCCA [Sensor-V1 #77] (Eterna round: R97, puzzle: Sensor, turn-off variant 1)
apparent KD of MS2 coat protein (input ligand: FMN 200 uM): 19.1 nM | apparent KD of MS2 coat protein (input ligand: none): 19.8 nM

UGCAGACGAGGAUAUAGAUUUAGAUACAUGAGGAUCACCCAUGUAUAUAUGUAUUUAGAUUUAGAAGGCGUCUGCU [E5/15-A4] (Eterna round: R97, puzzle: Exclusion 5)
apparent KD of MS2 coat protein (input ligand: FMN 200 uM): 240 nM | apparent KD of MS2 coat protein (input ligand: none): 283 nM

UGCCUAUGAGGAUAUACAUUGAAUAAGAUUCAUGUAAAACUACAUGAGGAUCACCCAUGUAGAAGGCAUGGGCU [Mat - Exclusion 2 - JL Mod - D70] (Eterna round: R97, puzzle: Exclusion 2)
apparent KD of MS2 coat protein (input ligand: FMN 200 uM): 29 nM | apparent KD of MS2 coat protein (input ligand: none): 19.1 nM

UGCGGGCUUUUGAGACCUCACAUGAGGAUCACCCAUGUGCUUGUCUUGUGGGUCGGUCGGUCGUUGGCUGGCUGACG [Sensor-V1 #96] (Eterna round: R97, puzzle: Sensor, turn-off variant 1)
apparent KD of MS2 coat protein (input ligand: FMN 200 uM): 19.2 nM | apparent KD of MS2 coat protein (input ligand: none): 19.3 nM

UGCGGGCUUUUGAGACCUCACAUGAGGAUCACCCAUGUGCUUGUCUUGUGGGUCGGUCGGUCGUUGGCUGGCUGGCG [Sensor-V1 #95] (Eterna round: R97, puzzle: Sensor, turn-off variant 1)
apparent KD of MS2 coat protein (input ligand: FMN 200 uM): 20 nM | apparent KD of MS2 coat protein (input ligand: none): 19.3 nM

— the supplement of paper PMC9170038
